Experimental data taken from patent US20220177587A1, “METHODS AND USES OF VARIANT CD80 FUSION PROTEINS AND RELATED CONSTRUCTS” (Alpine Immune Sciences, Inc., priority 2018, published 2022).

Assays:
huPD-L1/MC38 cells = test: huPD-L1 MC38 tumor model, combination with oxaliplatin; format: in vivo, mouse; conditions: monotherapy
Description: To test the anti-tumor activity of the exemplary variant, it was evaluated alone or in combination with the platinum-based chemotherapeutic agent, oxaliplatin, in mice bearing human PD-L1-expressing MC38 tumors, which is a syngeneic mouse colon carcinoma solid tumor model.
The huPD-L1 MC38 cell line was generated by transducing parental MC38 cells with huPD-L1 using viral transduction. Eight-week old female C57/BL6NJ mice (The Jackson Laboratories, Sacramento, Calif.) were implanted subcutaneously with 0.5×10^6 huPD-L1/MC38 cells. For injections, 0.1 mL of cells (0.5×10^6 cells) were injected subcutaneously (SC) in the right mid-flank region.
On day 1, mice were randomized into four groups of 10 mice each, with all mice in each group having about equal mean tumor volumes (˜108 mm^3). Tumors were measured with electronic calipers two-dimensionally twice weekly, beginning on day 7 post-tumor cell implant (referred to as “day 1”). Tumor volume was calculated as length×(width×2)×0.5, with the length being the longer of the two measurements.
As shown, 30% of the mice in the monotherapy group were tumor free by the end of the study.

huPD-L1 = huPD-L1 (Homo sapiens, UniProt Q9NZQ7); test: Flow binding to CHO cells stably expressing PD-L1; set-up: huCTLA4 and huPD-L1, full-length mammalian surface expression constructs were generated; expressed in transfected cells; host or cells: CHO cells, lentiviral transduction, sorted to >98% purity; conditions: 66.7 nM
Description: (§1) Binding of selected immunomodulatory fusion proteins to cognate binding partners was assessed. […] Cells were sorted in a Bio-Rad S3 Cell Sorter (Bio-Rad Corp., USA) to >98% purity. Jurkat/IL2 reporter cells, which endogenously express CD28, were used to detect binding to CD28.
(§2) For staining and analysis by flow cytometry, 100,000 cells of appropriate transfected cells were plated in 96-well round bottom plates. Cells were spun down and resuspended in staining buffer (phosphate buffered saline (PBS), 1% bovine serum albumin (BSA), and 0.1% sodium azide) for 20 minutes to block non-specific binding. […] Primary staining was performed on ice for 45 minutes, before washing cells in staining buffer twice. Phycoerythrin (PE)-conjugated anti-human Fc (Jackson ImmunoResearch, USA) was diluted 1:150, added to cells and incubated another 30 minutes on ice. Cells were then washed twice with 150 μL/well stain buffer, fixed in 2% formaldehyde/PBS, and analyzed on Intellicyt flow cytometer (Intellicyt Corp., USA). PE Mean Fluorescence Intensity (MFI) was calculated for each cell type with FlowJo Version 10 software (FlowJo LLC, USA).
(§3) Binding assays were carried out to assess the specificity and affinity of multivalent proteins to cell-expressed CTLA-4, CD28, and PD-L1 counter structures.
(§4) The EC50 for binding also was determined.

CD28 [1] = molecular target: T1, CD28 (Homo sapiens, UniProt P10747); test: Jurkat/IL2 + K562/OKT3 (no PD-L1) reporter assay of CD80 ECD-Fc (effector); format: cell-based; set-up: host or cells: Jurkat cells expressing an IL-2-luciferase reporter; conditions: aAPC without PD-L1
Description: The bioactivity of the generated molecules also was assessed using a Jurkat report assay as described in Examples 9 to assess CD28 costimulation of the molecules.

huCTLA4 = huCTLA4 (Homo sapiens, UniProt P16410); test: Flow binding to CHO cells stably expressing CTLA4; set-up: huCTLA4 and huPD-L1, full-length mammalian surface expression constructs were generated; expressed in transfected cells; host or cells: CHO cells, lentiviral transduction, sorted to >98% purity
Description: as §1, §2, §3, §4

CD28 [2] = molecular target: T1, CD28; test: Flow binding to Jurkat/IL2 reporter cells (CD28); set-up: host or cells: Jurkat cells expressing an IL-2-luciferase reporter
Description: as §1, §2, §3, §4

Pan T cells = test: Primary T cell stimulation assay with K562/OKT3 +/- PD-L1 (IL-2, IFN-gamma, proliferation); format: cell-based, human; set-up: IL-2 release, K562/OKT3 (No PD-L1), CD80-IgV Fc (effector), 1 nM / IL-2 release, K562/OKT3 (No PD-L1), CD80-IgV Fc (effector), 10 nM / IL-2 release, K562/OKT3 (No PD-L1), CD80-IgV Fc (effector), 100 nM / IL-2 release, K562/OKT3/PD-L1, CD80-IgV Fc (inert), 1 nM / IL-2 release, K562/OKT3/PD-L1, CD80-IgV Fc (inert), 10 nM / IL-2 release, K562/OKT3/PD-L1, CD80-IgV Fc (inert), 100 nM: unit not given here; conditions: 72 hr
Description: IFN-gamma, IL-2 and proliferation were determined after 72 hr. incubation.

Chain of huCTLA4 (P16410 36-223): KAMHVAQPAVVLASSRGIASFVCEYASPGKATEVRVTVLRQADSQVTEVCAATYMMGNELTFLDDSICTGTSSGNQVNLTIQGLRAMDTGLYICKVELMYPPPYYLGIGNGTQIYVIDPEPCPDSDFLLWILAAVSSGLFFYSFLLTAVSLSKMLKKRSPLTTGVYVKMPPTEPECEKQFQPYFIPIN
Chain of huPD-L1 (Q9NZQ7 19-290): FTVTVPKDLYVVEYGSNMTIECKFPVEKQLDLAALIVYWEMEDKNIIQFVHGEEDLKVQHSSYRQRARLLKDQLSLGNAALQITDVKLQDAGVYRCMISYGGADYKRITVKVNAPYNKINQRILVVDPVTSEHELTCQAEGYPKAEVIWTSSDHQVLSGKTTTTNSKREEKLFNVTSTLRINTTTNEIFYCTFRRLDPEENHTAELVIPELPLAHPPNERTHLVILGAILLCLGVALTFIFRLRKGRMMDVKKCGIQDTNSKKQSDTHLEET

**Q.** With `O=C1[O][Pt]2([NH][C@@H]3CCCC[C@H]3[NH]2)[O]C1=O` [oxaliplatin, reference compound] as the compound, how does the antitumor activity (huPD-L1/MC38 cells) read?
**A.** Its antitumor activity is “only modestly effective as monotherapy”.

**Q.** And the “tumor free mice by the end of the study” value (huPD-L1/MC38 cells)?
**A.** The value was “no tumor-free mice”.

**Q.** What does the source list for “CD80 (E35D/D46E/M47V/V68M/D90G/K93E) ECD-Fc: variant full CD80 ECD fused to effector human IgG1 Fc (SEQ ID NO:1527)”?
**A.** CHO/PD-L1 MFI at 66.7 nM (huPD-L1): 287; Relative Luminescence at 98 pM (CD28 [1]): 949 RLU; Relative Luminescence at 391 pM (CD28 [1]): 939 RLU; Relative Luminescence at 1563 pM (CD28 [1]): 1022 RLU; Relative Luminescence at 6250 pM (CD28 [1]): 1213 RLU; Relative Luminescence at 25000 pM (CD28 [1]): 1558 RLU; Relative Luminescence at 100000 pM (CD28 [1]): 2046 RLU; CHO/CTLA4 MFI at 66.7 nM (huCTLA4; 66.7 nM): 24566; EC50 (huCTLA4; flow binding): 10.5 nM

**Q.** How did the “CHO/PD-L1 MFI at 66.7 nM” value (huPD-L1) turn out when “CD80 (S21P/L70Q/D90G/I118V/T120S/T130A) ECD-Fc: variant full CD80 ECD fused to effector human IgG1 Fc (SEQ ID NO:1527)” was run?
**A.** Its value is 103.

**Q.** And the “Jurkat/CD28 MFI at 66.7 nM” value (CD28 [2]; 66.7 nM)?
**A.** Its value is 282.

**Q.** What about the EC50 (CD28 [2]; flow binding, read-out: Jurkat/CD28 EC50) of the same compound?
**A.** The EC50 was > 200 nM.

**Q.** And the “Relative Luminescence at 98 pM” value (CD28 [1])?
**A.** The value was 1042 RLU.

**Q.** And the “Relative Luminescence at 391 pM” value (CD28 [1])?
**A.** The value was 993 RLU.

**Q.** What about the “Relative Luminescence at 1563 pM” value (CD28 [1]) of the same compound?
**A.** The value was 1049 RLU.

**Q.** What about the “Relative Luminescence at 6250 pM” value (CD28 [1]) of the same compound?
**A.** The value was 1203 RLU.

**Q.** And the “Relative Luminescence at 25000 pM” value (CD28 [1])?
**A.** The value was 1730 RLU.

**Q.** And the “Relative Luminescence at 100000 pM” value (CD28 [1])?
**A.** The value was 2197 RLU.

**Q.** With Inert Fc Control as the compound, how does the “IL-2 release, K562/OKT3 (No PD-L1), CD80-IgV Fc (effector), 1 nM” value (Pan T cells; Pan T cells + K562/OKT3 (no PD-L1), effector Fc format (controls as labelled), 1 nM) read?
**A.** Its value is 7040.

**Q.** What about the “IL-2 release, K562/OKT3 (No PD-L1), CD80-IgV Fc (effector), 10 nM” value (Pan T cells; Pan T cells + K562/OKT3 (no PD-L1), effector Fc format (controls as labelled), 10 nM) of the same compound?
**A.** Its value is 6335.

**Q.** What about the “IL-2 release, K562/OKT3 (No PD-L1), CD80-IgV Fc (effector), 100 nM” value (Pan T cells; Pan T cells + K562/OKT3 (no PD-L1), effector Fc format (controls as labelled), 100 nM) of the same compound?
**A.** The value was 5512.

**Q.** What about the “IL-2 release, K562/OKT3/PD-L1, CD80-IgV Fc (inert), 1 nM” value (Pan T cells; Pan T cells + K562/OKT3/PD-L1, inert Fc format (controls as labelled), 1 nM) of the same compound?
**A.** The value was “<LOD”.

**Q.** And the “IL-2 release, K562/OKT3/PD-L1, CD80-IgV Fc (inert), 10 nM” value (Pan T cells; Pan T cells + K562/OKT3/PD-L1, inert Fc format (controls as labelled), 10 nM)?
**A.** The value was 143.

**Q.** What about the “IL-2 release, K562/OKT3/PD-L1, CD80-IgV Fc (inert), 100 nM” value (Pan T cells; Pan T cells + K562/OKT3/PD-L1, inert Fc format (controls as labelled), 100 nM) of the same compound?
**A.** Its value is “<LOD”.
